Source: patent CN115368464A (HEFEI TIANGANG IMMUNOLOGY PHARMACEUTICAL CO LTD, dated 2022)

Biological target: T1, CD33蛋白 (SEQ ID NO:27) on CHO-K1-CD33 / A375-CD33 cells (Homo sapiens (Human), UniProt P20138 18-364)
T1 construct: also called CHO-K1-CD33细胞; A375-CD33细胞
Assay: flow cytometry on CHO-K1-CD33 cells, Alexa-647 anti-human Fc

T1 sequence (P20138 18-364 limits assumed): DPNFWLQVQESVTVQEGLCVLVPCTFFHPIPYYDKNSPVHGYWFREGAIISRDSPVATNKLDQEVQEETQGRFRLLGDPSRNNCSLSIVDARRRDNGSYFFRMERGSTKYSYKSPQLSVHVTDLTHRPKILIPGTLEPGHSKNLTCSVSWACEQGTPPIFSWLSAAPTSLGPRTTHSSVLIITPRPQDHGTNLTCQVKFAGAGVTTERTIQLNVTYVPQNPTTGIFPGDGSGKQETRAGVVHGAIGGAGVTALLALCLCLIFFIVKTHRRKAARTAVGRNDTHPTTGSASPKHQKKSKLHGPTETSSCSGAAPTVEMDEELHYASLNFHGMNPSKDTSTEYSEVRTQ

B1: CD3×CD33双特异性抗体 (bispecific antibody, human IgG1, kappa, L234A L235A)
chain: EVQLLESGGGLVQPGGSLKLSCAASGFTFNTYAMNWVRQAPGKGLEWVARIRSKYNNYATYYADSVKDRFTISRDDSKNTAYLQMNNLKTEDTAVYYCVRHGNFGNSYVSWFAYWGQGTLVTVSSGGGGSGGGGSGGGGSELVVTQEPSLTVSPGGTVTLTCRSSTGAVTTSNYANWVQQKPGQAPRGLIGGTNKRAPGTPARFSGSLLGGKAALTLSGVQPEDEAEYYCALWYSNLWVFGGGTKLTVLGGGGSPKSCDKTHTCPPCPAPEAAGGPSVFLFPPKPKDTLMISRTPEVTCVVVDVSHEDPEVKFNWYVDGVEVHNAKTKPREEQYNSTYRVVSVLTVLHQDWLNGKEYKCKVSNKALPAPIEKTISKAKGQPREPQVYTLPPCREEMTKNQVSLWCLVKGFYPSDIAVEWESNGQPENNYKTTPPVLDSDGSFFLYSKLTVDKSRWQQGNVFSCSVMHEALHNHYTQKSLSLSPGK
heavy: EVQLVQSGAEVKKPGSSVKVSCKASGYTITDSNIHWVRQAPGQSLEWIGYIYPYNGGTDYNQKFKNRATLTVDNPTNTAYMELSSLRSEDTAFYYCVNGNPWLAYWGQGTLVTVSSASTKGPSVFPLAPSSKSTSGGTAALGCLVKDYFPEPVTVSWNSGALTSGVHTFPAVLQSSGLYSLSSVVTVPSSSLGTQTYICNVNHKPSNTKVDKKVEPKSCDKTHTCPPCPAPEAAGGPSVFLFPPKPKDTLMISRTPEVTCVVVDVSHEDPEVKFNWYVDGVEVHNAKTKPREEQYNSTYRVVSVLTVLHQDWLNGKEYKCKVSNKALPAPIEKTISKAKGQPREPQVCTLPPSREEMTKNQVSLSCAVKGFYPSDIAVEWESNGQPENNYKTTPPVLDSDGSFFLVSKLTVDKSRWQQGNVFSCSVMHEALHNHYTQKSLSLSPGK
light: DIQLTQSPSTLSASVGDRVTITCRASESLDNYGIRFLTWFQQKPGKAPKLLMYAASNQGSGVPSRFSGSGSGTEFTLTISSLQPDDFATYYCQQTKEVPWSFGQGTKVEVKRTVAAPSVFIFPPSDEQLKSGTASVVCLLNNFYPREAKVQWKVDNALQSGNSQESVTEQDSKDSTYSLSSTLTLSKADYEKHKVYACEVTHQGLSSPVTKSFNRGEC
notes: Fc is human IgG1 with L234A/L235A; also called 抗体CD3×CD33; CD3×CD33双特异抗体
B1: binds.
